Test results reported in patent publication US12134634B2.
Values belong to the substance of their own block, whether it stands above or below them.

Experiments:
[1] = target: NIR PKA biosensor (… SEQUENCE)
[2] = target: miRFP670nano-DEVD-miRFP720 FRET-based reporter for caspase-3 activity (… SEQUENCE)
[3] = target: NIR JNK biosensor (… SEQUENCE)

- FRET/miRFP670nano fluorescence ratio [1]: 33%
Substance: Protein Kinase A (PKA) (enzyme)

- FRET/miRFP670nano fluorescence ratio detected at 725 nm/667 nm [2]: 1.65 fold
Substance: caspase-3 (from UniProt P42574) (enzyme)

- FRET/miRFP670nano fluorescence ratio [3]: 35%
Substance: c-Jun N-terminal kinase (JNK) (enzyme)
